B1: Hairpin Ribozyme (parent)
chain: GUCCUCUUUCACGUGCGCGUGAAAGAGAGAAGUGAACCAGAGAAACACACGUUGUGGUAUAUUACCUGGUA

The variants in the data set derive from B1. Put plainly: self-cleavage, relative activity (ratio to wild type); higher = more cleavage; co-transcriptional.
As for C18U C50A, the self-cleavage amounted to 0.314.

With C38G C46U, the self-cleavage was determined as 0.116.

For the variant U5C A71G, the self-cleavage turned out to be 0.389.

Consider C10A G54U, for which the self-cleavage was 0.426.

As to U62G C65G, the self-cleavage turned out to be 0.223.

With A23C C38A, the self-cleavage was determined as 0.161.

Consider C37G A49G, for which the self-cleavage worked out at 0.18.

Take C10A C16G: the self-cleavage stood at 0.527.

With A22G A59C, the self-cleavage was 0.122.

Consider C6A C46A, for which the self-cleavage amounted to 0.119.

Consider C4U G34C, for which the self-cleavage was found to be 1.03.

As to A64G U67A, the self-cleavage turned out to be 0.0458.

Take C37A A41G: the self-cleavage was determined as 0.339.

As to C10G C38A, the self-cleavage amounted to 0.168.

As to U33C U58G, the self-cleavage was 0.0694.

Take C12U G69C: the self-cleavage was found to be 0.367.

Take G21U A35C: the self-cleavage is 0.841.

Consider C46A G54C, for which the self-cleavage turned out to be 0.129.

Consider G17A G34A, for which the self-cleavage is 1.26.

Regarding G1U C6G, the self-cleavage amounted to 0.228.

Consider A11U A71U, for which the self-cleavage is 0.701.

Regarding G19C C48G, the self-cleavage was 0.165.

In the case of G34A A44G, the self-cleavage is 0.259.

For C4U A26U, the self-cleavage was 0.156.

Regarding G42C U52G, the self-cleavage is 0.237.

Turning to G19U A71G, the self-cleavage is 1.02.

For the variant U9A U20A, the self-cleavage is 0.605.

Regarding A41C A44C, the self-cleavage turned out to be 0.0994.

Turning to G1A A22C, the self-cleavage was 0.11.

In the case of C6U C38A, the self-cleavage was 0.0889.

Turning to A47U U52G, the self-cleavage was determined as 0.256.

Turning to C66U G69C, the self-cleavage worked out at 0.198.

Take U8C A44U: the self-cleavage was 0.142.

Take U14G C46A: the self-cleavage turned out to be 0.113.

For the variant U5G G29U, the self-cleavage amounted to 0.168.

Take A45C U58A: the self-cleavage stood at 0.309.

Take U9G C37U: the self-cleavage worked out at 0.5.

Turning to C4A U53A, the self-cleavage worked out at 0.363.

For the variant U7C A36U, the self-cleavage was 0.466.

On to C50A C65G, for which the self-cleavage stood at 0.0746.

On to C10A G19A, for which the self-cleavage came to 0.761.

Take A45G A64U: the self-cleavage was 0.176.

On to U7C G32C, for which the self-cleavage stood at 0.141.

Consider A11U U70C, for which the self-cleavage stood at 0.848.

For C10A C50U, the self-cleavage came to 0.349.

On to U9G U63C, for which the self-cleavage worked out at 0.094.

On to G40C A71U, for which the self-cleavage was found to be 0.09.

As to C16G C46A, the self-cleavage came to 0.224.

In the case of U55A G57C, the self-cleavage is 0.146.

C37A U55G: the self-cleavage turned out to be 0.0701.

As for U55C A61C, the self-cleavage worked out at 0.0408.

U14A A23G: the self-cleavage amounted to 0.814.

Turning to G1C C12G, the self-cleavage came out at 0.188.

Regarding U5C U53C, the self-cleavage came to 0.317.

As to A28G A71G, the self-cleavage amounted to 0.941.

Turning to G19U A64C, the self-cleavage was 0.162.

As for G1C U70A, the self-cleavage came to 0.208.

Turning to G1U G40U, the self-cleavage stood at 0.111.

With U62A A71U, the self-cleavage stood at 0.169.

In the case of U55C U70A, the self-cleavage worked out at 0.143.

Regarding U55C U70C, the self-cleavage is 0.195.

As for G17A A45G, the self-cleavage was 0.15.

C38U A44C: the self-cleavage came out at 0.0457.

As for A30G U62A, the self-cleavage amounted to 0.0629.

Turning to G17A A59G, the self-cleavage is 0.205.

In the case of C48U G68U, the self-cleavage stood at 0.097.

In the case of G42U U62A, the self-cleavage worked out at 0.2.

As to G57C U58A, the self-cleavage is 0.222.

With A28U U63A, the self-cleavage is 0.128.

For the variant C3G U20A, the self-cleavage was determined as 0.222.

For U58C A61C, the self-cleavage came to 0.145.

Consider C4G G42C, for which the self-cleavage is 0.17.

Turning to A49G U63A, the self-cleavage came out at 0.0688.

On to U52G G56U, for which the self-cleavage is 0.131.

In the case of G34U, the self-cleavage was found to be 1.42.

In the case of G27C A35G, the self-cleavage turned out to be 0.181.

In the case of A24G U33G, the self-cleavage worked out at 0.0457.

In the case of C4G U58C, the self-cleavage is 0.403.

With G21C C46G, the self-cleavage worked out at 0.162.

Take A23U U63C: the self-cleavage stood at 0.182.

G1A G54A: the self-cleavage is 0.191.

Regarding C18U C46G, the self-cleavage amounted to 0.145.

Consider A31U U53C, for which the self-cleavage was determined as 0.133.

A44C U67A: the self-cleavage was determined as 0.113.

Regarding A39G G56U, the self-cleavage was determined as 0.0978.

With A23C A71U, the self-cleavage was determined as 0.832.

As to G32C A47U, the self-cleavage was determined as 0.0919.

Regarding C18U G29U, the self-cleavage came to 0.172.

C6A C66U: the self-cleavage was 0.247.

On to G19A A44G, for which the self-cleavage worked out at 0.137.

As for C16G G68A, the self-cleavage is 0.243.

In the case of A30G A43G, the self-cleavage is 0.0977.

Take C16U A30G: the self-cleavage is 0.157.

As for G27C U33G, the self-cleavage came to 0.0854.

In the case of A26G A44G, the self-cleavage is 0.241.

G21U G32U: the self-cleavage turned out to be 0.1.

For U14G A23U, the self-cleavage was found to be 0.68.

With C10U C66A, the self-cleavage is 0.183.

U8C A49U: the self-cleavage amounted to 0.244.

With A44U G57A, the self-cleavage came to 0.0753.

With C3A C65G, the self-cleavage is 0.314.

Consider G27C U53C, for which the self-cleavage is 0.318.

In the case of U7C A28U, the self-cleavage came to 0.514.

For the variant C16G G29A, the self-cleavage was found to be 0.202.

As for U52A U55A, the self-cleavage came to 0.33.

In the case of C38U U62A, the self-cleavage was 0.128.

With G34U U58G, the self-cleavage is 1.25.

Consider A44C A47U, for which the self-cleavage worked out at 0.135.

As to A35G U58A, the self-cleavage is 0.73.

Consider G19U U67C, for which the self-cleavage is 0.214.

For the variant G32C U52C, the self-cleavage was determined as 0.131.

As for G21U C46A, the self-cleavage amounted to 0.0942.

Take G1C C48A: the self-cleavage is 0.129.

Regarding A28G G29A, the self-cleavage was found to be 0.13.

For U7C C12G, the self-cleavage worked out at 0.758.

Turning to G13U A64G, the self-cleavage is 0.533.

For A43U A64U, the self-cleavage amounted to 0.266.

Regarding G21C G68U, the self-cleavage amounted to 0.289.

With C10A G17C, the self-cleavage was found to be 0.489.

For the variant G1C A31U, the self-cleavage was 0.163.

As to A11U A39U, the self-cleavage was found to be 0.309.

Regarding A22C G54C, the self-cleavage worked out at 0.317.

On to G21A U70A, for which the self-cleavage stood at 0.742.

For C16U U53G, the self-cleavage was determined as 1.05.

On to A24G A49U, for which the self-cleavage amounted to 0.124.

With A11U A59G, the self-cleavage amounted to 0.0747.

Consider A47G U62C, for which the self-cleavage stood at 0.0615.

Take A23C A44U: the self-cleavage came out at 0.129.

On to G13A U58A, for which the self-cleavage was determined as 0.574.

Regarding U2G A39G, the self-cleavage is 0.179.

Take C12G U52A: the self-cleavage came out at 0.922.

G51U G69A: the self-cleavage was 0.457.

Turning to C37U A39G, the self-cleavage was found to be 0.269.

With A24C A36G, the self-cleavage came out at 0.928.

Regarding A23U G51C, the self-cleavage amounted to 0.832.

In the case of A11G C12G, the self-cleavage was 0.788.

For G42A U55A, the self-cleavage came out at 0.104.

C12A G19C: the self-cleavage was determined as 0.944.

Take A31G A45G: the self-cleavage was determined as 0.0922.

Regarding U5G G13C, the self-cleavage was found to be 0.276.

With G29C U67G, the self-cleavage stood at 0.12.

For G29C G54U, the self-cleavage amounted to 0.162.

Take G40A G54U: the self-cleavage turned out to be 0.183.

Take A41C U60C: the self-cleavage is 1.27.

Turning to U8G A61G, the self-cleavage came out at 0.0213.

On to A41G G42C, for which the self-cleavage stood at 0.0762.

Regarding U60C A71G, the self-cleavage worked out at 1.08.

With U14A A36G, the self-cleavage turned out to be 0.864.

On to A23G, for which the self-cleavage is 0.851.

As for G1U U53G, the self-cleavage was 0.227.

As to A35U G42A, the self-cleavage amounted to 0.181.

Regarding G15U G21A, the self-cleavage is 0.872.

In the case of A24G G57C, the self-cleavage turned out to be 0.118.

Regarding C38U G69A, the self-cleavage stood at 0.138.

Consider C16A A24C, for which the self-cleavage is 0.71.

For the variant C3G A36G, the self-cleavage is 0.255.

C46G C50A: the self-cleavage stood at 0.0593.

As to A36C A45G, the self-cleavage came to 0.133.

C48G A64G: the self-cleavage was determined as 0.155.

With U62G U63G, the self-cleavage was found to be 0.191.

Regarding U2A C3G, the self-cleavage is 0.127.

For the variant G27U G40A, the self-cleavage was 0.117.

On to G19A A36U, for which the self-cleavage was 0.542.

Consider G34A C66G, for which the self-cleavage was determined as 0.184.

A36G A44G: the self-cleavage was determined as 0.276.

Take A41G U53A: the self-cleavage came out at 1.1.

G19C U67G: the self-cleavage was found to be 0.227.
